Here are results for 9 molecules from US20250129150A1 (APOGEE THERAPEUTICS, published 2025).

Changes are numbered by the printed parent chain. “And” between values parts separate entries of the source, which are not always exact repeats. Equal entries are not always repeated.

For assay [1], the target named is biotinylated hIL-13 (human, UniProt P35225 35-146, limits assumed, biotinylated (site not stated)). Nature of the assay: FACS; blockade of biotinylated hIL-13 (0.05 ug/mL) binding to HEK293 cells expressing hIL-13Rα1/hIL-4Rα. Here is the method: Briefly, HEK293 previously transduced to stably express both hIL-13Rα and hIL-4Rα were cultured and harvested. Cells were seeded at 200,000 cells in 100 uL per well. Cells were washed and the supernatant was discarded. […] The cells were stained in this mixture at 4° C. for 1 hour. […] Cells were incubated at 4° C. for 1 hour, protected from light. Cells were then washed and the median fluorescence intensity (MFI) of cells in each well were recorded by FACS using a BD FACSCanto II. Subsequent data were analyzed using GraphPad Prism.
For orientation: A flow cytometer gives signals particle by particle.

The target in assay [2] is T1, hIL-13 (human, UniProt P35225 35-146, limits assumed).
T1 construct: IL-13 as used in the cell assays, the ELISA, the binning study and HDX-MS/XL-MS; also called human IL-13; Hu IL-13
Nature of the assay: ELISA. A general note: ELISA stands for enzyme-linked immunosorbent assay.

The target in assay [3] is T1, hIL-13. Nature of the assay: cell-based or functional assay.
The target of assay [4] is T2, Recombinant Human IL-13 Protein, His Tag (Acro Cat. IL3-H52H4) (human, UniProt P35225 35-146).
T2 construct: Bought protein; also called Hu IL-13; not shown: His Tag
The assay is described as follows: SPR (Biacore 8K), mAb captured on Protein G chip, IL-13 as analyte. As for the experimental part:
(§1) Samples were injected in a multi-cycle manner over freshly captured mAb, by regenerating the capture surfaces with injection of glycine pH 1.5 for 30 sec at a flow rate of 30 μL/min. The data was processed and analyzed with Biacore Insight Evaluation Software Version 2.0.15.12933 (GE Healthcare) as follows. […] The responses from the two buffer blank injections were then subtracted from the reference subtracted data (2-1) to yield double-referenced data, which were fit to an 1:1 binding model to determine the apparent association (ka) and dissociation rate constants (kd). Their ratio provided the apparent equilibrium dissociation constant or affinity constant (KD=kd/ka).
Background: SPR reads the build-up and loss of mass on a sensor chip optically.

Assay [5] deals with T3, Recombinant Cynomolgus IL-13 Protein, His Tag (SINO BIOLOGICAL, Cat. 11057-C07H) (cynomolgus monkey, UniProt Q5I6E4 19-132 (Macaca thibetana entry)).
T3 construct: also called Cyno IL-13; cynomolgus monkey IL-13
T3 chain: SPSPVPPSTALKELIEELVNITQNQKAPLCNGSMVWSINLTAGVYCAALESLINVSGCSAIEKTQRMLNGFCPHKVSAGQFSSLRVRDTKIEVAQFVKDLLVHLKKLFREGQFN
The description is as above. Here is the method: as §1

Assay [6] addresses T1, hIL-13. The assay is described as follows: cell-based or functional assay. This is another data set of the same source.
The target of assay [7] is T1, hIL-13. The assay is described as follows: cell-based or functional assay. The source holds these as a separate data set.
In assay [8] the target is T1, hIL-13. Nature of the assay: cell-based or functional assay. The source holds these as a separate data set.
Assay [9] addresses T1, hIL-13. The assay is described as follows: cell-based or functional assay. The source holds these as a separate data set.
Assay [10] has as its target T1, hIL-13. Nature of the assay: cell-based or functional assay. This is another data set of the same source.

T1 sequence (P35225 other isoform, or with tags, fused parts or gaps limits assumed): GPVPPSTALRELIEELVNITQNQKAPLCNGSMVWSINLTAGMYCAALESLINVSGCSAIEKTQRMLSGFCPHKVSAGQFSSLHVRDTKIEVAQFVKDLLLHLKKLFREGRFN
Chain of biotinylated hIL-13 (P35225 other isoform, or with tags, fused parts or gaps limits assumed): as above
T2 sequence (P35225 other isoform, or with tags, fused parts or gaps limits assumed): as above

B1: Construct 141 (antibody, human IgG1, kappa, L234A L235A)
heavy: EVQLQESGPGLVKPSETLSLTCTVSGFSLNAYSVNWIRQPPGKGLEWLGMIWGDGKIVYNSALKSRLTISKDSSKNQVSLKLSSVTAADTAVYYCAGDGYYPYAMDNWGQGTTVTVSSASTKGPSVFPLAPSSKSTSGGTAALGCLVKDYFPEPVTVSWNSGALTSGVHTFPAVLQSSGLYSLSSVVTVPSSSLGTQTYICNVNHKPSNTKVDKKVEPKSCDKTHTCPPCPAPEAAGGPSVFLFPPKPKDTLYITREPEVTCVVVDVSHEDPEVKFNWYVDGVEVHNAKTKPREEQYNSTYRVVSVLTVLHQDWLNGKEYKCKVSNKALPAPIEKTISKAKGQPREPQVYTLPPSRDELTKNQVSLTCLVKGFYPSDIAVEWESNGQPENNYKTTPPVLDSDGSFFLYSKLTVDKSRWQQGNVFSCSVMHEALHNHYTQKSLSLSPG
light: DIQLTQSPSSLSASVGDRVTITCRASKSVDSYGNSFMHWYQQKPGKAPKLLIYLASELESGVPSRFSGSGSGTDFTLTISSLQPEDFATYYCQQNNEDPRTFGGGTKVEIKRTVAAPSVFIFPPSDEQLKSGTASVVCLLNNFYPREAKVQWKVDNALQSGNSQESVTEQDSKDSTYSLSSTLTLSKADYEKHKVYACEVTHQGLSSPVTKSFNRGEC
notes: also called HC1; LC6_m8
As for B1, the IC50 (usually the concentration at which inhibition is half-maximal) in assay [1] turned out to be 0.81 nM. For the same molecule, the affinity in [2], expressed as Kd, was 0.025 nM. In addition, the “TF-1 Proliferation Inhibition IC50” value in [3] is 0.19 nM. Moreover, the Kd (in general, the constant that tells how readily two partners part at equilibrium) in [4] worked out at 0.107 nM. Further, in [5], the Kd was found to be 0.329 nM. Further, the “TARC Inhibition IC50 (A549 cells)” value in assay [6] was determined as 0.73 nM. In assay [7], the “CD23 Expression Inhibition IC50 (human PBMCs)” value amounted to 0.86 nM and the “pSTAT6 Inhibition IC50 (human PBMCs)” value amounted to 0.41 nM. For the same molecule, in [8], the “pSTAT6 Inhibition IC50 (HT-29 cells)” value was 0.25 nM. In [9], the “CCL2 Secretion IC50 (HaCaT cells)” value is 0.075 nM, the “CCL26 Secretion IC50 (HaCaT cells)” value stood at 0.055 nM and the “NTRK1 Expression IC50 (HaCaT cells)” value is 0.054 nM.

B2: Construct 19 (antibody, human IgG1, kappa)
heavy: EVQLLESGGGLVQPGGSLRLSCAASGFSLNAYSVNWVRQAPGKGLEWLGMIWGDGKIVYNSALKSRLTISKDSSKNTVYLQMNSLRAEDTAVYYCAGDGYYPYAMDNWGQGTTVTVSSASTKGPSVFPLAPSSKSTSGGTAALGCLVKDYFPEPVTVSWNSGALTSGVHTFPAVLQSSGLYSLSSVVTVPSSSLGTQTYICNVNHKPSNTKVDKKVEPKSCDKTHTCPPCPAPELAGAPSVFLFPPKPKDTLYITREPEVTCVVVDVSHEDPEVKFNWYVDGVEVHNAKTKPREEQYNSTYRVVSVLTVLHQDWLNGKEYKCKVSNKALPAPIEKTISKAKGQPREPQVYTLPPSRDELTKNQVSLTCLVKGFYPSDIAVEWESNGQPENNYKTTPPVLDSDGSFFLYSKLTVDKSRWQQGNVFSCSVMHEALHNHYTQKSLSLSPG
light: B1 light with E57N
Consider B2, for which the “TARC Release IC50 (A549 cells)” value in assay [10] is 1.1 nM and 1 nM.

B3: Construct 98 (antibody, human IgG1, kappa)
heavy: B2 heavy
light: B1 light
With B3, in assay [10], the “TARC Release IC50 (A549 cells)” value worked out at 0.9 nM.

B4: Construct 137 (antibody, human IgG1, kappa, L234A L235A)
heavy: B2 heavy with L235A, A238G
light: B1 light
notes: also called HC5; LC6_m8
In the case of B4, the 50% inhibitory concentration (IC50) in [1] amounted to 0.89 nM. Besides, the figures for the Kd in [2], in assay [4] and in assay [5] were 0.026 nM, 0.0421 nM and 0.246 nM, respectively. Also, the “TF-1 Proliferation Inhibition IC50” value in [3] was 0.16 nM. For the same molecule, the “TARC Inhibition IC50 (A549 cells)” value in assay [6] was determined as 0.87 nM. Further, the “CD23 Expression Inhibition IC50 (human PBMCs)” value in [7] is 1.01 nM. Also, the “pSTAT6 Inhibition IC50 (human PBMCs)” value in assay [7] was 0.44 nM. Besides, in assay [8], the “pSTAT6 Inhibition IC50 (HT-29 cells)” value stood at 0.33 nM.

B5: Construct 96 (antibody, human IgG1, kappa, V domains shown)
VH: EVQLLESGGGLVQPGGSLRLSCAASGFSLNAYSVNWVRQAPGKGLEWLGMIWGDGKIVYNSALKSRLTISKDSSKNTVYLQMNSLRAEDTAVYYCAGDGYYPYAMDNWGQGTTVTVSS
VL: DIQLTQSPSSLSASVGDRVTITCRASKSVDSYGNSFMHWYQQKPGKAPKLLIYLASDLESGVPSRFSGSGSGTDFTLTISSLQPEDFATYYCQQNNEDPRTFGGGTKVEIKR
Turning to B5, in assay [10], the “TARC Release IC50 (A549 cells)” value worked out at 1 nM.

B6: Construct 114 (antibody, human IgG1, kappa, V domains shown)
VH: B5 VH with A31Q
VL: B5 VL with D57N
Regarding B6, the “TARC Release IC50 (A549 cells)” value in assay [10] was 1.1 nM.

B7: Construct 108 (antibody, human IgG1, kappa, V domains shown)
VH: B5 VH with N30D
VL: B5 VL with D57N
For B7, in assay [10], the “TARC Release IC50 (A549 cells)” value was found to be 1 nM.

B8: Construct 110 (antibody, human IgG1, kappa, V domains shown)
VH: B5 VH with N30S
VL: B5 VL with D57N
Turning to B8, in assay [10], the “TARC Release IC50 (A549 cells)” value came out at 1 nM.

B9: Construct 107 (antibody, human IgG1, kappa, V domains shown)
VH: B5 VH with N30H
VL: B5 VL with D57N
Consider B9, for which, in assay [10], the “TARC Release IC50 (A549 cells)” value turned out to be 1.3 nM.
